Experiments:
Assay in all cases: Sialidase kinetic constants with soluble sialylglycoconjugate substrates
Format in all cases: biochemical, Chinese hamster
Details in all cases: other: apparent; standard assay conditions; average of duplicates, relative error about 10%; 37.0 °C
[1] = substrate: CC(=O)N[C@H]1[C@H]([C@H](O)[C@H](O)CO)O[C@@](Oc2ccc3c(C)cc(=O)oc3c2)(C(=O)O)C[C@@H]1O
Description: (§1) Fluorescent sialidase assays: Standard assay conditions for monitoring the enzyme activity during purification using the fluorescent substrate analog are: 1.3 mM 4-MUNeu5Ac, 50 mM phosphate buffer, pH 6.8, 0.3 mg bovine serum albumin and varying amounts of enzyme in a total volume of 30 μl. After addition of enzyme the samples are incubated at 37° C. in a shaking water bath for 5 minutes. The reaction is terminated and the fluorescence of the liberated umbelliferone is enhanced by the addition of 2 ml of 80 mM glycine-carbonate buffer, pH 9.7. Quantification of the product is made by measuring the fluorescence of the samples with excitation at 365 nm and emission at 450 nm using a standard of 4-methyl umbelliferone. A unit of enzyme activity is defined as a μmol/min of sialic acid liberated.
(§2) Sialidase assays with natural substrates: When natural substrates are tested with the purified enzyme, the amount of released sialic acid is measured using the thiobarbituric acid assay as modified by Uchida [Uchida et al. J. Biochem., 82:1425 (1977)] using sialic acid as standard. The amount of sialic acid in control samples, which include a complete assay mixture incubated without added enzyme is subtracted from each determination. All samples are cleared by centrifugation (1,000×G, 10 min) prior to determining the absorbance at 540 nm.
(§3) Enzyme kinetic parameters: Assay conditions (time and added enzyme) are modified for each substrate so that initial reaction rates are measured. Kinetic parameters are obtained from double reciprocal plots of the substrate saturation curves [Segel, I. H. John Wiley, New York, Enzyme Kinetics, 18 (1975)].

[2] = substrate: CC(=O)N[C@H]1[C@H]([C@H](O)[C@H](O)CO)O[C@@](O[C@H]2[C@@H](O)[C@@H](CO)O[C@@H](O[C@H]3[C@H](O)[C@@H](O)C(O)O[C@@H]3CO)[C@@H]2O)(C(=O)O)C[C@@H]1O
Description: as §1, §2, §3

[3] = substrate: CC(=O)N[C@H]1[C@H]([C@H](O)[C@H](O)CO)O[C@@](O[C@H](CO)[C@@H](O)[C@@H]2OC(O)(C(=O)O)C[C@H](O)[C@H]2NC(C)=O)(C(=O)O)C[C@@H]1O
Description: as §1, §2, §3

[4] = substrate: CC(=O)N[C@H]1[C@H]([C@H](O)[C@H](O)CO)O[C@@](OC[C@H]2O[C@@H](O[C@H]3[C@H](O)[C@@H](O)C(O)O[C@@H]3CO)[C@H](O)[C@@H](O)[C@H]2O)(C(=O)O)C[C@@H]1O
Description: as §1, §2, §3

B1: CHO cell sialidase (Cricetulus griseus) (protein)
chain: MATCPVLQKETLFQTGDYAYRIPALIYLSKQKTLLAFAEKRLTKTDEHADLFVLRRGSYNADTHQVQWQAEEVVTQAYLEGHRSMSPCPLYDKQTRTLFLFFIAVRGQISEHHQLQTGVNVTRLCHITSTDHGKTWSAVQDLTDTTIGSTHQDWATFGVGPGHCLQLRNTAGSLLVPAYAYRKQPPIHAPAPSAFCFLSHDHGSTWELGHFVSQNSLECQVAEVGTGAERVVYLNARSCLGARVQAQSPNSGLDFQDNQVVSKLVEPPKGCHGSVIAFPNPTSKADALDVWLLYTHPTDSRKRTNLGVYLNQKPLDPTTWSAPTLLATGICAYSDLQNMGHGPDGSPQFGCLYESNNYEEIVFLMFTLKQAFPAVFGAQ
notes: The sialidase described was purified from the cell culture fluid of a single production cell line (CHO 14.16); endogenous in cells; host or cells: CHO 14.16 cells (purified from the cell culture fluid)
[1]
  Km: 400 µM
  Vmax: 18 µmol/min/mg
[2]
  Km: 1300 µM
  Vmax: 16 µmol/min/mg
[3]
  Km: 3400 µM
  Vmax: 11 µmol/min/mg
[4]
  Km: 1200 µM
  Vmax: 4 µmol/min/mg

Source: patent publication US5928915A, “CHO cell sialidase by recombinant DNA technology” (Genentech, Inc., priority 1997, dated 1999)
